Columns and labels:
[1] = target: MazF9 toxin, (His)6MazF(FLAG)3 (Mycobacterium tuberculosis) (UniProt P71650); assay: MST
[2] = target: MazF3 toxin, (His)6MazF(FLAG)3 (Mycobacterium tuberculosis) (UniProt P9WIH8); assay: MST
[3] = target: MazE3 antitoxin, full length, (His)6MazE(FLAG)3 (Mycobacterium tuberculosis) (UniProt O53451); assay: SEC-MALS
[4] = target: MazE9 antitoxin, full length, (His)6MazE(FLAG)3 (Mycobacterium tuberculosis) (UniProt P0CL61); assay: SEC-MALS
[5] = target: MazF6 toxin WT, purified (Mycobacterium tuberculosis) (UniProt P9WII2); assay: SEC-MALS
[6] = target: MazF9 toxin, (His)6MazF(FLAG)3 (Mycobacterium tuberculosis) (UniProt P71650); assay: SEC-MALS
MazE3 library = assay: flow cytometry on cells
SEC-MALS = target: the molecule itself; assay: SEC-MALS

Sequence of MazF9 toxin, (His)6MazF(FLAG)3 (Mycobacterium tuberculosis) (P71650 whole entry): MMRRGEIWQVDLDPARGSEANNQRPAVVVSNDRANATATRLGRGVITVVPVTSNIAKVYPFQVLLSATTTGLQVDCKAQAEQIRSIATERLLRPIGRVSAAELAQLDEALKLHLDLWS

“C-terminal MazE3 peptide (residues 72-106) (from UniProt O53451 72-106)” was tested, and the Kd [1] was 200 nM and the Kd [2] was 299 nM.

For “C-terminal MazE9 peptide (residues 43-76) (from UniProt P0CL61 43-76)”, the Kd [1] was 5.7 nM.

“MazE3 antitoxin, full length, (His)6MazE(FLAG)3 (from UniProt O53451 1-106) (natural protein)” showed a stoichiometry N [3] of 2.

With “MazE9 antitoxin, full length, (His)6MazE(FLAG)3 (from UniProt P0CL61 1-76) (natural protein)” the stoichiometry N [4] was 2 and the Kd [1] was 8.9 nM.

For “MazF6 toxin WT, purified (from UniProt P9WII2 1-114) (natural protein)”, the stoichiometry N [5] was 2.

Work on “MazF9 toxin, (His)6MazF(FLAG)3 (from UniProt P71650 1-118) (natural protein)” yielded a stoichiometry N [6] of 2.

B1: MazF3 toxin, (His)6MazF(FLAG)3 (natural protein)
chain: MRPIHIAQLDKARPVLILTREVVRPHLTNVTVAPITTTVRGLATEVPVDAVNGLNQPSVVSCDNTQTIPVCDLGRQIGYLLASQEPALAEAIGNAFDLDWVVA
In the case of B1, the Kd (MazE3 library) is reported as 1.7 nM and the “stoichiometry N” value (SEC-MALS) is reported as 2.
